Consider one protein from doi:10.1101/2025.08.22.671756, “Structural basis of Drosophila insulin receptor activation by DILP2 hormone” (bioRxiv, 2025).

The data set deals with the molecule itself. The data set can be described thus: cryo-EM structure; dmIR-ECD 0.2 mg/ml in SEC buffer (25 mM HEPES pH 8.0, 200 mM NaCl) incubated with 40-fold molar excess of DILP2 at room temperature for 30 min; two conformers from subsets of the particles (3.75 Å and 6.25 Å maps).

B1: Drosophila melanogaster insulin receptor ectodomain (dmIR-ECD) (domain or fragment, UniProt P09208 291-1309, looked up)
chain: LPAHQQHLLHNDIADGLDKTALSVSGTQSRWTRSESNPTMRLSQNVKPCKSMDIRNMVSHFNQLENCTVIEGFLLIDLINDASPLNRSFPKLTEVTDYIIIYRVTGLHSLSKIFPNLSVIRGNKLFDGYALVVYSNFDLMDLGLHKLRSITRGGVRIEKNHKLCYDRTIDWLEILAENETQLVVLTENGKEKECRLSKCPGEIRIEEGHDTTAIEGELNASCQLHNNRRLCWNSKLCQTKCPEKCRNNCIDEHTCCSQDCLGGCVIDKNGNESCISCRNVSFNNICMDSCPKGYYQFDSRCVTANECITLTKFETNSVYSGIPYNGQCITHCPTGYQKSENKRMCEPCPGGKCDKECSSGLIDSLERAREFHGCTIITGTEPLTISIKRESGAHVMDELKYGLAAVHKIQSSLMVHLTYGLKSLKFFQSLTEISGDPPMDADKYALYVLDNRDLDELWGPNQTVFIRKGGVFFHFNPKLCVSTINQLLPMLASKPKFFEKSDVGADSNGNRGSCGTAVLNVTLQSVGANSAMLNVTTKVEIGEPQKPSNATIVFKDPRAFIGFVFYHMIDPYGNSTKSSDDPCDDRWKVSSPEKSGVMVLSNLIPYTNYSYYVRTMAISSELTNAESDVKNFRTNPGRPSKVTEVVATAISDSKINVTWSYLDKPYGVLTRYFIKAKLINRPTRNNNRDYCTEPLVKAMENDLPATTPTKKISDPLAGDCKCVEGSKKTSSQEYDDRKVQAGMEFENALQNFIFVPNIRKSKNGSSDKSDGAEGAALDSNAIPNGGATNPSRRRRDVALEPELDDVEGSVLLRHVRSITDDTDAFFEKDDENTYKDEEDLSSNKQFYEVFAKELPPNQTHFVFEKLRHFTRYAIFVVACREEIPSEKLRDTSFKKSLCSDYDTVFQTTKRKKFADIVMDLKVDLEHANNTESPVRVRWTPPVDPNGEIVTYEVAYKLQKPDQVEEKKCIPAADFNQTAGYLIKLNEGLYSFRVRANSIAGYGDFTEVEHIKVEPPPSYA
notes: Insulin receptor (dmIR), Drosophila melanogaster, ectodomain; Expressed from codon-optimised DNA for residues 264-1309 with an added start codon; the results name the construct 291Leu-1309Ala; Described as an (αβ)2 homodimer; N-glycans are visible in the maps; also called dmIR ectodomain; 291Leu-1309Ala dmIR-ECD construct; source: Sf9 (ExpiSf9) cells, baculovirus, conditioned media, purified …
On to B1, for which the binding result was “binds”.
